Measurements published in the supplement of paper PMC10201428.
± gives the standard deviation of the averaged measurements.

Key:
[1] = system: VchCAST RNA-guided transposition machinery (E. coli BL21(DE3) host, lacZ target); test: relative integration efficiency (T-RL orientation) vs wild-type transposon end (log2 (normalized fold change)); transposon end mutated: right end (5 bp flank + 75 bp right end); higher = more efficient transposition
In short: (§1)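 A T7-driven effector plasmid encoding a CRISPR array, tniQ-cas8-cas7-cas6 and tnsA-tnsB-tnsC was co-transformed into E. coli BL21(DE3) together with a pUC57 mini-transposon donor holding barcoded pools of 1549 left-end or 1849 right-end variants. Transformants were plated with 0.1 mM IPTG at 37°C for 18 h. Illumina sequencing of PCR-amplified input plasmids and genomic integration junctions gave barcode abundances, and relative integration efficiency is their output/input fold change, normalised to reference barcodes and log-transformed.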

[2] = system: VchCAST RNA-guided transposition machinery (E. coli BL21(DE3) host, lacZ target); test: relative integration efficiency (T-LR orientation) vs wild-type transposon end (log2 (normalized fold change)); transposon end mutated: right end (5 bp flank + 75 bp right end); higher = more efficient transposition
In short: as §1

Sequence	relative integration efficiency (log2) [1]	relative integration efficiency (log2) [2]
ACATTTGTTGATACAACCATAAAGTGATATTTACAACCATAAAGTGATATTTATCACAACCATAAAGTGATATTTACTCTGATCATAGTCAGACCAACATTGCTACGACCCGTATTCGCACCGACAC	0.0208 ± 0.11	0.061 ± 0.087
ACATTTGTTGATACAACCATAAAGTGATATTTACAACCATAAAGTGATATTTATCACAACCATAAGTTGATATTTTCTCTGATCATAGTCAGACCAACATTGCTACGACCCGTATTCGCACCGACAC	0.0887 ± 0.14	-0.279 ± 0.16
ACATTTGTTGATACAACCATAAAGTGATATTTACAACCATAAAGTGATATTTATCACAACCATATATTGATATCTCCTCTGATCATAGTCAGACCAACATTGCTACGACCCGTATTCGCACCGACAC	0.115 ± 0.19	0.458 ± 0.14
ACATTTGTTGATACAACCATAAAGTGATATTTACAACCATAAAGTGATATTTATCACACCCATAAATTGATAATTACTCTGATCATAGTCAGACCAACATTGCTACGACCCGTATTCGCACCGACAC	0.0651 ± 0.0083	0.289 ± 0.082
ACATTTGTTGATACAACCATAAAGTGATATTTACAACCATAAAGTGATATTTATCACACCCATAAATTGATATTGCCTCTGATCATAGTCAGACCAACATTGCTACGACCCGTATTCGCACCGACAC	-0.0388 ± 0.082	-0.0332 ± 0.27
ACATTTGTTGATACAACCATAAAGTGATATTTACAACCATAAAGTGATATTTATCAGTGGGTATTTAACTATAACGCTCTGATCATAGTCAGACCAACATTGCTACGACCCGTATTCGCACCGACAC	-0.497 ± 0.26	2.91 ± 0.034
ACATTTGTTGATACAACCATAAAGTGATATTTACAACCATAAGTTGATATTTTTCACAACCATAAAATGATAATTACTCTGATCATAGTCAGACCAACATTGCTACGACCCGTATTCGCACCGACAC	-0.0427 ± 0.12	0.217 ± 0.045
ACATTTGTTGATACAACCATAAAGTGATATTTACAACCATAAGTTGATATTTTTCACAACCATAAAGTGATATTTACTCTGATCATAGTCAGACCAACATTGCTACGACCCGTATTCGCACCGACAC	0.0395 ± 0.16	0.0534 ± 0.15
ACATTTGTTGATACAACCATAAAGTGATATTTACAACCATAAGTTGATATTTTTCACAACCATAAGTTGATATTTTCTCTGATCATAGTCAGACCAACATTGCTACGACCCGTATTCGCACCGACAC	0.36 ± 0.12	0.284 ± 0.16
ACATTTGTTGATACAACCATAAAGTGATATTTACAACCATAAGTTGATATTTTTCACAACCATATATTGATATCTCCTCTGATCATAGTCAGACCAACATTGCTACGACCCGTATTCGCACCGACAC	0.0944 ± 0.13	0.346 ± 0.17
ACATTTGTTGATACAACCATAAAGTGATATTTACAACCATAAGTTGATATTTTTCACACCCATAAATTGATAATTACTCTGATCATAGTCAGACCAACATTGCTACGACCCGTATTCGCACCGACAC	-0.192 ± 0.21	0.0675 ± 0.11
ACATTTGTTGATACAACCATAAAGTGATATTTACAACCATAAGTTGATATTTTTCACACCCATAAATTGATATTGCCTCTGATCATAGTCAGACCAACATTGCTACGACCCGTATTCGCACCGACAC	-0.0454 ± 0.018	0.319 ± 0.19
ACATTTGTTGATACAACCATAAAGTGATATTTACAACCATAAGTTGATATTTTTCAGTGGGTATTTAACTATAACGCTCTGATCATAGTCAGACCAACATTGCTACGACCCGTATTCGCACCGACAC	-0.682 ± 0.18	2.73 ± 0.16
ACATTTGTTGATACAACCATAAAGTGATATTTACAACCATATATTGATATCTCTCACAACCATAAAATGATAATTACTCTGATCATAGTCAGACCAACATTGCTACGACCCGTATTCGCACCGACAC	-0.337 ± 0.17	-0.162 ± 0.091
ACATTTGTTGATACAACCATAAAGTGATATTTACAACCATATATTGATATCTCTCACAACCATAAAGTGATATTTACTCTGATCATAGTCAGACCAACATTGCTACGACCCGTATTCGCACCGACAC	-0.357 ± 0.21	-0.115 ± 0.5
ACATTTGTTGATACAACCATAAAGTGATATTTACAACCATATATTGATATCTCTCACAACCATAAGTTGATATTTTCTCTGATCATAGTCAGACCAACATTGCTACGACCCGTATTCGCACCGACAC	-0.0164 ± 0.24	0.252 ± 0.15
ACATTTGTTGATACAACCATAAAGTGATATTTACAACCATATATTGATATCTCTCACAACCATATATTGATATCTCCTCTGATCATAGTCAGACCAACATTGCTACGACCCGTATTCGCACCGACAC	-0.415 ± 0.28	0.32 ± 0.11
ACATTTGTTGATACAACCATAAAGTGATATTTACAACCATATATTGATATCTCTCACACCCATAAATTGATAATTACTCTGATCATAGTCAGACCAACATTGCTACGACCCGTATTCGCACCGACAC	0.065 ± 0.054	0.444 ± 0.39
ACATTTGTTGATACAACCATAAAGTGATATTTACAACCATATATTGATATCTCTCACACCCATAAATTGATATTGCCTCTGATCATAGTCAGACCAACATTGCTACGACCCGTATTCGCACCGACAC	-0.378 ± 0.18	0.352 ± 0.16
ACATTTGTTGATACAACCATAAAGTGATATTTACAACCATATATTGATATCTCTCAGTGGGTATTTAACTATAACGCTCTGATCATAGTCAGACCAACATTGCTACGACCCGTATTCGCACCGACAC	-1.32 ± 0.41	2.6 ± 0.17
ACATTTGTTGATACAACCATAAAGTGATATTTACACCCATAAATTGATAATTATCACAACCATAAAATGATAATTACTCTGATCATAGTCAGACCAACATTGCTACGACCCGTATTCGCACCGACAC	0.256 ± 0.0071	-0.112 ± 0.54
ACATTTGTTGATACAACCATAAAGTGATATTTACACCCATAAATTGATAATTATCACAACCATAAAGTGATATTTACTCTGATCATAGTCAGACCAACATTGCTACGACCCGTATTCGCACCGACAC	-0.155 ± 0.041	-0.0182 ± 0.15
ACATTTGTTGATACAACCATAAAGTGATATTTACACCCATAAATTGATAATTATCACAACCATAAGTTGATATTTTCTCTGATCATAGTCAGACCAACATTGCTACGACCCGTATTCGCACCGACAC	-0.313 ± 0.23	-0.245 ± 0.3
ACATTTGTTGATACAACCATAAAGTGATATTTACACCCATAAATTGATAATTATCACAACCATATATTGATATCTCCTCTGATCATAGTCAGACCAACATTGCTACGACCCGTATTCGCACCGACAC	-0.382 ± 0.084	-0.0754 ± 0.42
ACATTTGTTGATACAACCATAAAGTGATATTTACACCCATAAATTGATAATTATCACACCCATAAATTGATAATTACTCTGATCATAGTCAGACCAACATTGCTACGACCCGTATTCGCACCGACAC	0.112 ± 0.071	-0.191 ± 0.54
ACATTTGTTGATACAACCATAAAGTGATATTTACACCCATAAATTGATAATTATCACACCCATAAATTGATATTGCCTCTGATCATAGTCAGACCAACATTGCTACGACCCGTATTCGCACCGACAC	-0.207 ± 0.081	-0.336 ± 0.44
ACATTTGTTGATACAACCATAAAGTGATATTTACACCCATAAATTGATAATTATCAGTGGGTATTTAACTATAACGCTCTGATCATAGTCAGACCAACATTGCTACGACCCGTATTCGCACCGACAC	-0.826 ± 0.22	2.57 ± 0.054
